Test results published in PMC314469, “Protein Interaction Networks by Proteome Peptide Scanning” (PLoS Biology, 2004).

T1: Abp1 SH3 (ABP1_YEAST), P15891
T1 chain: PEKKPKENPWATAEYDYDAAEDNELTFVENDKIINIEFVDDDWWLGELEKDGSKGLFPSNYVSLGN

B1: YDR501W 3-15 (peptide)
chain: HLFPPSSPVAGKP
B2: YDR195W 518-531 (peptide)
chain: HVPIVKRNKYPPRP
B3: YGL137W 186-199 (peptide)
chain: GVNYVDYYPLPDKP
B4: YNR036C 60-73 (peptide)
chain: GVVLRVMVLKPKKP
B5: YBR108W 510-523 (peptide)
chain: HYDVDANIMPPPKP
B6: YJL069C 248-261 (peptide)
chain: HSAIQSLSFHPSKP
B7: YHL027W 198-211 (peptide)
chain: HITSHLRVHVPLKP
B8: YHR020W 279-291 (peptide)
chain: GSSELEEPIAIRP
B9: YJR103W 537-550 (peptide)
chain: HPEYTSKVLEPSRP
B10: YMR100W 263-275 (peptide)
chain: HKNFFSQPDINRP
B11: YOR290C 412-424 (peptide)
chain: HTEQNNPPKPQKP
B12: YLR299W 81-93 (peptide)
chain: HHNIDIDPLPRRP
B13: YIR007W 25-38 (peptide)
chain: GVNLDPSVKIPAKP
B14: YLR244C 308-320 (peptide)
chain: HYAKNRTPGVMKP
B15: YBR193C 182-195 (peptide)
chain: HASLLVRDSKPSKP
B16: YPL107W 67-80 (peptide)
chain: GTKKIAGVQVPAKP
B17: YBL039C 535-548 (peptide)
chain: HPEYTSKVLDPSKP
B18: YPR111W 45-57 (peptide)
chain: GRLTPGLPRSYKP
B19: YJR090C 735-747 (peptide)
chain: HLSLTAVPSFLRP
B20: YDL002C 84-97 (peptide)
chain: HKVKERDPNMPKRP
B21: YER100W 55-68 (peptide)
chain: HGTLTFPSDYPYKP
B22: YGL131C 343-355 (peptide)
chain: HLYSMDPPLDRKP
B23: YLR313C 322-334 (peptide)
chain: GSTAVSFPSSGKP
B24: YDL025C 257-270 (peptide)
chain: HHHHHNRGSTPTKP
B25: YGL023C 320-333 (peptide)
chain: HKSNVRQISNPKKP
B26: YLR429W 120-132 (peptide)
chain: HVDEDGEPIDIKP
B27: YNL138W 349-361 (peptide)
chain: GSKSGPPPRPKKP
B28: YLL029W 25-37 (peptide)
chain: GTSASHSPRPFRP
B29: YNL042W 210-222 (peptide)
chain: GTKSQESPLNKKP
B30: YOR363C 848-861 (peptide)
chain: GVADPQNSLNPSKP
B31: YIR013C 32-45 (peptide)
chain: HGLPRNADSQPARP
B32: YDL203C 543-555 (peptide)
chain: GWYLTGAPNILKP
B33: YGR270W 682-694 (peptide)
chain: GSSPQPLPELIKP
B34: YGR014W 1282-1294 (peptide)
chain: HNTSSSIPKISRP
B35: YOR329C 803-816 (peptide)
chain: HLNNSDIHSQPNKP
B36: YPR160W 817-829 (peptide)
chain: GQFSPENPNEFKP
B37: YMR076C 1094-1106 (peptide)
chain: GPQKEEAPKKHRP
B38: YLR162W 19-31 (peptide)
chain: HSAATALPALRRP
B39: YGL034C 16-28 (peptide)
chain: GRAPRETPEWRRP
B40: YFL015C 82-94 (peptide)
chain: HSYRQLAPTHHRP
B41: YLR023C 375-387 (peptide)
chain: GVFMNWSPRFDRP
B42: YGR019W 332-345 (peptide)
chain: GYFFHDPKFIPNKP
B43: YEL036C 221-233 (peptide)
chain: HDKDVIVPNVWRP
B44: Q0055 610-622 (peptide)
chain: GYDVKVTPWEKRP
B45: YLR153C 435-448 (peptide)
chain: HLIAPLAGAVPTKP
B46: YER166W 1422-1435 (peptide)
chain: HYPPGYDPTDPNRP
B47: YOL100W 451-463 (peptide)
chain: GSVWSKTPPEIKP
B48: YNL007C 25-38 (peptide)
chain: GYRKAALKYHPDKP
B49: YHR092C 51-64 (peptide)
chain: HEESNNYVEIPKKP
B50: YML075C 1020-1033 (peptide)
chain: HMTHNRKPAEPTKP
B51: YLR090W 428-441 (peptide)
chain: HTDDLPEGIRPFKP
B52: YOR093C 1314-1326 (peptide)
chain: GVRNIMIPFPNRP
B53: YKL054C 142-155 (peptide)
chain: HVNLDKGKHVPSKP
B54: YLR238W 83-96 (peptide)
chain: GTFESKHVVIPFKP
B55: YDL195W 1091-1103 (peptide)
chain: HTMTSPPPVFNKP
B56: YHL002W 323-336 (peptide)
chain: HIGDMYGSVTPLRP
B57: YOL085C 38-50 (peptide)
chain: HADSVADPRSSRP
B58: YDL222C 69-82 (peptide)
chain: GQLANSSSRAPAKP

Biological target: T1, Abp1 SH3 (ABP1_YEAST), P15891
Assay: SPOT array
A normalised SPOT signal, Boehringer light units (BLU); mean over the file's lines of this peptide of 69.7 was found for B1 in this work. A normalised SPOT signal, Boehringer light units (BLU); mean over the file's lines of this peptide of 267 was found for B2 in this work. A normalised SPOT signal, Boehringer light units (BLU); mean over the file's lines of this peptide of 122 was found for B3 in this work. A normalised SPOT signal, Boehringer light units (BLU); mean over the file's lines of this peptide of 131 was found for B4 in this work. A normalised SPOT signal, Boehringer light units (BLU); mean over the file's lines of this peptide of 108 was found for B5 in this work. A normalised SPOT signal, Boehringer light units (BLU); mean over the file's lines of this peptide of 194 was found for B6 in this work. A normalised SPOT signal, Boehringer light units (BLU); mean over the file's lines of this peptide of 285 was found for B7 in this work. A normalised SPOT signal, Boehringer light units (BLU); mean over the file's lines of this peptide of 107 was found for B8 in this work. A normalised SPOT signal, Boehringer light units (BLU); mean over the file's lines of this peptide of 91.6 was found for B9 in this work. A normalised SPOT signal, Boehringer light units (BLU); mean over the file's lines of this peptide of 85.4 was found for B10 in this work. A normalised SPOT signal, Boehringer light units (BLU); mean over the file's lines of this peptide of 129 was found for B11 in this work. A normalised SPOT signal, Boehringer light units (BLU); mean over the file's lines of this peptide of 55.3 was found for B12 in this work. A normalised SPOT signal, Boehringer light units (BLU); mean over the file's lines of this peptide of 112 was found for B13 in this work. A normalised SPOT signal, Boehringer light units (BLU); mean over the file's lines of this peptide of 419 was found for B14 in this work. A normalised SPOT signal, Boehringer light units (BLU); mean over the file's lines of this peptide of 91.3 was found for B15 in this work. A normalised SPOT signal, Boehringer light units (BLU); mean over the file's lines of this peptide of 106 was found for B16 in this work. A normalised SPOT signal, Boehringer light units (BLU); mean over the file's lines of this peptide of 69.3 was found for B17 in this work. A normalised SPOT signal, Boehringer light units (BLU); mean over the file's lines of this peptide of 866 was found for B18 in this work. A normalised SPOT signal, Boehringer light units (BLU); mean over the file's lines of this peptide of 62.7 was found for B19 in this work. A normalised SPOT signal, Boehringer light units (BLU); mean over the file's lines of this peptide of 156 was found for B20 in this work. A normalised SPOT signal, Boehringer light units (BLU); mean over the file's lines of this peptide of 124 was found for B21 in this work. A normalised SPOT signal, Boehringer light units (BLU); mean over the file's lines of this peptide of 172 was found for B22 in this work. A normalised SPOT signal, Boehringer light units (BLU); mean over the file's lines of this peptide of 108 was found for B23 in this work. A normalised SPOT signal, Boehringer light units (BLU); mean over the file's lines of this peptide of 257 was found for B24 in this work. A normalised SPOT signal, Boehringer light units (BLU); mean over the file's lines of this peptide of 98.3 was found for B25 in this work. A normalised SPOT signal, Boehringer light units (BLU); mean over the file's lines of this peptide of 202 was found for B26 in this work. A normalised SPOT signal, Boehringer light units (BLU); mean over the file's lines of this peptide of 25200 was found for B27 in this work. A normalised SPOT signal, Boehringer light units (BLU); mean over the file's lines of this peptide of 134 was found for B28 in this work. A normalised SPOT signal, Boehringer light units (BLU); mean over the file's lines of this peptide of 58.6 was found for B29 in this work. A normalised SPOT signal, Boehringer light units (BLU); mean over the file's lines of this peptide of 48.5 was found for B30 in this work. A normalised SPOT signal, Boehringer light units (BLU); mean over the file's lines of this peptide of 154 was found for B31 in this work. A normalised SPOT signal, Boehringer light units (BLU); mean over the file's lines of this peptide of 102 was found for B32 in this work. A normalised SPOT signal, Boehringer light units (BLU); mean over the file's lines of this peptide of 55.9 was found for B33 in this work. A normalised SPOT signal, Boehringer light units (BLU); mean over the file's lines of this peptide of 765 was found for B34 in this work. A normalised SPOT signal, Boehringer light units (BLU); mean over the file's lines of this peptide of 87.4 was found for B35 in this work. A normalised SPOT signal, Boehringer light units (BLU); mean over the file's lines of this peptide of 60.8 was found for B36 in this work. A normalised SPOT signal, Boehringer light units (BLU); mean over the file's lines of this peptide of 86.6 was found for B37 in this work. A normalised SPOT signal, Boehringer light units (BLU); mean over the file's lines of this peptide of 80.8 was found for B38 in this work. A normalised SPOT signal, Boehringer light units (BLU); mean over the file's lines of this peptide of 2720 was found for B39 in this work. A normalised SPOT signal, Boehringer light units (BLU); mean over the file's lines of this peptide of 703 was found for B40 in this work. A normalised SPOT signal, Boehringer light units (BLU); mean over the file's lines of this peptide of 176 was found for B41 in this work. A normalised SPOT signal, Boehringer light units (BLU); mean over the file's lines of this peptide of 174 was found for B42 in this work. A normalised SPOT signal, Boehringer light units (BLU); mean over the file's lines of this peptide of 123 was found for B43 in this work. A normalised SPOT signal, Boehringer light units (BLU); mean over the file's lines of this peptide of 139 was found for B44 in this work. A normalised SPOT signal, Boehringer light units (BLU); mean over the file's lines of this peptide of 131 was found for B45 in this work. A normalised SPOT signal, Boehringer light units (BLU); mean over the file's lines of this peptide of 176 was found for B46 in this work. A normalised SPOT signal, Boehringer light units (BLU); mean over the file's lines of this peptide of 87.2 was found for B47 in this work. A normalised SPOT signal, Boehringer light units (BLU); mean over the file's lines of this peptide of 172 was found for B48 in this work. A normalised SPOT signal, Boehringer light units (BLU); mean over the file's lines of this peptide of 137 was found for B49 in this work. A normalised SPOT signal, Boehringer light units (BLU); mean over the file's lines of this peptide of 2090 was found for B50 in this work. A normalised SPOT signal, Boehringer light units (BLU); mean over the file's lines of this peptide of 61 was found for B51 in this work. A normalised SPOT signal, Boehringer light units (BLU); mean over the file's lines of this peptide of 2310 was found for B52 in this work. A normalised SPOT signal, Boehringer light units (BLU); mean over the file's lines of this peptide of 105 was found for B53 in this work. A normalised SPOT signal, Boehringer light units (BLU); mean over the file's lines of this peptide of 83.5 was found for B54 in this work. A normalised SPOT signal, Boehringer light units (BLU); mean over the file's lines of this peptide of 1200 was found for B55 in this work. A normalised SPOT signal, Boehringer light units (BLU); mean over the file's lines of this peptide of 122 was found for B56 in this work. A normalised SPOT signal, Boehringer light units (BLU); mean over the file's lines of this peptide of 107 was found for B57 in this work. A normalised SPOT signal, Boehringer light units (BLU); mean over the file's lines of this peptide of 127 was found for B58 in this work.
